# Results from patent publication US20130280271A1 (INSTITUTE FOR CANCER RESEARCH, published 2013).
# B1: ASV IN(1-207) (enzyme)
# chain: PLREAKDLHTALHIGPRALSKACNISMQQAREVVQTCPHCNSAPALEAGVNPRGLGPLQIWQTDFTLEPRMAPRSWLAVTVDTASSAIVVTQHGRVTSVAAQHHWATAIAVLGRPKAIKTDNGSCFTSKSTREWLARWGIAHTTGIPGNSQGQAMVERANRLLKDKIRVLAEGDGFMKRIPTSKQGELLAKAMYALNHFERGENTKT
# notes: also called IN fragment that lacks the CTD
# Target: the molecule itself
# Assay: static light scattering; self-association
# Protocol: Light scattering analysis. Measurements were made with a Protein Solutions DynaPro Temperature Controlled Microsampler. Samples were adjusted to the desired concentration and particulates removed by filtration through a 0.2μ microcon device, and subsequent clearing by brief centrifugation at 14,000×g and 4° C. The protein concentration was then determined directly using absorbance at 280 nm and a calculated molar extinction coefficient, taking the average of 3 readings. All samples were analyzed under conditions of 10° C. in a buffer of 25 mM BisTris pH 6.1, 500 mM NaCl, 1 mM DTT, 0.1 mM EDTA, 5% glycerol. The molecular mass (MW I) was calculated from the static light scattering measurements (at least 300 acquisitions per protein sample) using the DynaPro software.
protein,measurement,value
B1,binding result,no binding (tested: 1.5 mg/ml)
